Measured values from patent US20190263922A1 (TIGA TX, published 2019).
Ends that are not written are not given here.

T1: linear peptide NSPSTQYGPANPSEK (human, also: covalently linked to the plate)
T1 peptide: NSPSTQYGPANPSEK

T2: circular peptide YNCEPANPSEKNSPSTQYCYS (human, circular (cysteine-based loop, Pepscan technology); covalently linked to the plate)
T2 peptide: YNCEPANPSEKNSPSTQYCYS

T3: human CD20 (human, UniProt P11836 1-297)
T3 construct: whole, on cells; Always presented on cells; also called MS4A1; CD20 WT
T3 sequence (looked up): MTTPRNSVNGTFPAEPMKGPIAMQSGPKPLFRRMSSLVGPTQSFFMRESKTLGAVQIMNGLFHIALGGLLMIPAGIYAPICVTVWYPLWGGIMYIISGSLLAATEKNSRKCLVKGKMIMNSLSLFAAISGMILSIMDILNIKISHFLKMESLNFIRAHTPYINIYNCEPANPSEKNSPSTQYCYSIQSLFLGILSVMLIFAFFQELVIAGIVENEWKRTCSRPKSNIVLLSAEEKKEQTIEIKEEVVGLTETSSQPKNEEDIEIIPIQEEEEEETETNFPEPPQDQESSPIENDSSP

T4: CD20 mutant T159K/N163D/N166D (human, UniProt P11836 1-297)
T4 construct: whole, on cells; also called KDD
T4 sequence (looked up): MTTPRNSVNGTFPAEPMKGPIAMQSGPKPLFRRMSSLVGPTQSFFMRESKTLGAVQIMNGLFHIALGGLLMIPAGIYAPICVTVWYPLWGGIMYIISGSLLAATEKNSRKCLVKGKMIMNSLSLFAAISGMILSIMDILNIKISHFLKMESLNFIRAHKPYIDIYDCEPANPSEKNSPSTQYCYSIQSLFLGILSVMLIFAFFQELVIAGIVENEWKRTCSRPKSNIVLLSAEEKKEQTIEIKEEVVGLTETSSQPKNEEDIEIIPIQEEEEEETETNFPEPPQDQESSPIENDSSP

T5: CD20 single mutant A170P (human, UniProt P11836 1-297)
T5 construct: whole, on cells
T5 sequence (looked up): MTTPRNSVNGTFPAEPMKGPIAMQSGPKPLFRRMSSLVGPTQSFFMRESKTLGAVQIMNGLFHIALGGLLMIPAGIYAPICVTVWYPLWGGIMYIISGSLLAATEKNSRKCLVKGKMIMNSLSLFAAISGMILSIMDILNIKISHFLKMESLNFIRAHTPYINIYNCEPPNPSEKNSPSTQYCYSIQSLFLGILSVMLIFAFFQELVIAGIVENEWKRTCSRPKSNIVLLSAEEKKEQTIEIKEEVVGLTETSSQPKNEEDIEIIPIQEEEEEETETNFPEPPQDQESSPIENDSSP


Experiments:
[1] = biological target: T1, linear peptide NSPSTQYGPANPSEK; experiment: PepScan ELISA, 1 ug/mL mAb on plate-linked peptide
Procedure: (§1) Recognition of peptides by the CD20 mAb was assessed in a PepScan-based ELISA as previously described. ⁽²⁰⁾ Briefly, 1 μg/mL mAb was added to plates with covalently linked peptides and incubated overnight at 4° C. After extensive washing, bound mAb was detected with a HRP-linked rabbit-anti-mIgG (DakoCytomation) for 1 h at 25° C. Unbound detection Ab was washed away. Plates were developed using ABTS substrate and color development quantified using a CCD camera and an image-processing system.

[2] = biological target: T2, circular peptide YNCEPANPSEKNSPSTQYCYS; experiment: PepScan ELISA, 1 ug/mL mAb on plate-linked peptide
Procedure: as §1

[3] = biological target: T3, human CD20; experiment: LigandTracer Green, 10 nM FITC-labeled mAb on SKBR3-CD20 cells, OneToOne fit, non-competitive dissociation
Procedure: (§2) Kinetics analysis of interactions between the mAbs and CD20 was performed by using the LigandTracer green Technology (Ridgeview Instruments AB). 10⁶ SKBR3-CD20 cells were seeded on one side of a 10 cm culture dish (Greiner) as target cell area and association of 10 nM FITC-labeled CD20 mAb was measured. For non-competitive or competitive dissociation, labeled mAb solution was replaced by RPMI culture medium or 100 nM unlabeled mAb of the same clone, respectively. Analysis was performed using an OneToOne fitting model in TraceDrawer (Ridgeview Instruments AB).
(§3) A slow Ab off-rate might favor the formation of Ab-Clq complexes, the first component of the classical complement pathway. […] To characterize interaction kinetics and affinity of mAbs, we used the LigandTracer technology to record real-time binding and dissociation of Abs to cellular receptors.

[4] = biological target: T3, human CD20; experiment: LigandTracer Green, 10 nM FITC-labeled mAb on SKBR3-CD20 cells, OneToOne fit, competitive dissociation (100 nM unlabeled mAb of the same clone)
Procedure: as §2, §3

[5] = biological target: T4, CD20 mutant T159K/N163D/N166D; experiment: FACS, HEK293F cells transfected with CD20 T159K/N163D/N166D, 5 ug/mL mAb
Procedure: (§4) One day post-transfection, cells were harvested, washed in FACS buffer and stained for 30 min with 5 μg/mL CD20 mAbs on ice. mAb binding was detected with a goat-anti-hIgG-APC or goat-anti-mIgG-APC Ab (Jackson). Cells were measured on a FACS Canto II (BD).
Therefore, we first performed a rough epitope mapping experiment with two CD20 mutants, with amino acids mutated in either the small (T159K/N163D/N166D) or larger (A170S/P172S) loop of CD20 (FIG. 4B).

[6] = biological target: T3, human CD20; experiment: FACS on Daudi cells
[7] = biological target: T5, CD20 single mutant A170P; experiment: FACS, HEK293F cells transfected with CD20 A170P
Procedure: as §4

binding result [1]	binding result [2]	Kd [3] [nM]	koff [3] [s⁻¹]	kon [3] [M⁻¹ s⁻¹]	Kd [4] [nM]	koff [4] [s⁻¹]	kon [4] [M⁻¹ s⁻¹]	binding result [5]	binding result [6]	binding result [7]	Binder
binds	binds	1.05	3.91e-05	37300	2.65	6.92e-05	26100				m1 (mIgG2c-CD20 mAb) (antibody, V domains shown, FITC- or Alexa647-labelled in the kinetic assays; label sites not given, Mouse IgG2c hybridoma mAb; FITC- or Alexa647-labeled in the kinetic assays) VH: QAYLQQSGAELVRPGASVKMSCKASGYTFTSYNLHWVKQTPRQGLEWIGAIYPGNGDTSYNQKFKGKATLTVDKSSSTAYMQLSRLTSEDSAVYFCARSNSYGSTYWYFDVWGTGTTVTVSS VL: QIVLSQSPAVLFASPGEKVTMTCRARSSVSYMDWYQQKPRSSPKPWIYATSNLASGVPARFSGSGSGTSYSLTISRVEAEDAATYYCQQWTSNPPTFGSGTKLEIK
								binds	binds	binds	m7 (mIgG2b-CD20 mAb) (antibody, V domains shown, Mouse IgG2b hybridoma mAb) VH: QAYLQQSGAELVRPGASVKMSCKASGYTFASYNMHWIKQTPRQGLEWIAAIYPGNGDTSYNQKFKGKATLTVDKSSSTAYMQLSSLTSEDSAVYFCARTYYYGSSPYWSFDVWGTGTTVTVSS VL: DIQMTQSPASLSASVGETVTVTCGASYNIYGALNWYQRKQGKSPQLLIYGATNLADGMSSRFSGSGSGRQYSLKISSLHPDDVATYYCQNVLSNPPTFGGGTKLEIK
